Test [1] deals with colon cancer cell line CT26. Nature of the test: Anti-tumor effect of recombinant murine PDS5A protein in tumor-bearing mouse, therapeutic model, CT26. Format: in vivo, Balb/c mice. As for the experimental part: (§1) The same experiment was carried out also for a colon cancer model. The colon cancer cell line CT26 was subcutaneously transplanted to Balb/c mice (7 weeks old, male, purchased from Japan SLC) in an amount of 1×10^6 cells. When the tumor volume reached an average of 50 to 100 mm^3 (typically 7 days after the inoculation of the tumor), the mice were randomly divided into groups each of which contains 10 individuals, and subjected to evaluation of the anti-tumor effect of the recombinant murine PDS5A protein (therapeutic model). With 100 μg (0.5 ml) of the recombinant murine PDS5A protein purified as described above, 50 μg of poly I:C was mixed to prepare a therapeutic agent for cancer, and this therapeutic agent was subcutaneously administered to the tumor-bearing mice a total of 3 times at intervals of 1 week. […] On the other hand, in the negative control group to which PBS(−) was administered and the group to which poly I:C alone (50 μg) was administered, the mean tumor volumes on Day 24 after the administration were 1449 mm^3 and 835 mm^3, respectively.

Test [2] relates to murine neuroblastoma cell line N2a. Briefly: Anti-tumor effect of recombinant murine PDS5A protein in tumor-bearing mouse, therapeutic model, N2a. Format: in vivo, A/J mice. As for the experimental part:
as §1, with “murine neuroblastoma” for “same experiment was carried out also for a colon cancer model. The colon cancer”, “N2a” for “CT26”, “A/J” for “Balb/c”, “31” for “24”, “1657” for “1449”, “932” for “835”

Test [3] has the same test system. Nature of the test: Anti-tumor effect of recombinant murine PDS5A protein, prophylactic model, N2a. Format: in vivo, A/J mice. As for the experimental part: (§2) Further, a therapeutic agent for cancer wherein 100 μg (0.5 ml) of the recombinant murine PDS5A protein and 50 μg poly I:C were mixed was prepared, and subcutaneously administered to A/J mice a total of 3 times at intervals of 1 week, followed by transplantation of 1×10^6 N2a cells to the mice and evaluation of the anti-tumor effect (prophylactic model). Ten individuals were included in each group, and, as controls for comparison, a negative control group to which PBS(−) was administered and a group to which poly I:C alone (50 μg) was administered were provided. […] On the other hand, in the negative control group to which PBS(−) was administered and the group to which poly I:C alone (50 μg) was administered, the mean tumor volumes on Day 40 after the administration were 1989 mm^3 and 1843 mm^3, respectively.

In test [4] the test system is colon cancer cell line CT26. Briefly: Anti-tumor effect of recombinant murine PDS5A protein, prophylactic model, CT26. In kind it is in vivo, Balb/c mice. As for the experimental part:
as §2, with “Balb/c” for “A/J”, “CT26” for “N2a”, “31” for “40”, “1781” for “1989”, “1675” for “1843”

The subject of test [5] is mammary gland tumor. Briefly: Anti-tumor effect of recombinant PDS5A protein in tumor-bearing dog, mammary gland tumor. In kind it is in vivo. Particulars: 500 μg protein with same amount of Freund's incomplete adjuvant, regional lymph node near tumor, 3 times at 1-week intervals; tumor about 500 mm^3 (dog-derived) or 1000 mm^3 (human-derived) at administration. As for the experimental part:
The anti-tumor effect of the recombinant protein described in Example 5 below in 3 individuals of tumor-bearing patient dogs (3 individuals having a mammary gland tumor) having a tumor mass in the epidermis was evaluated. Before administration, the antibody titer against the recombinant protein in the serum of each patient dog was measured by the method described in Example 5 (3), and, as a result, an antibody titer higher than that of a healthy dog was detected.
With 500 μg (2.5 ml) each of the recombinant PDS5A proteins (dog-derived and human-derived) purified as described above, the same amount of Freund's incomplete adjuvant (manufactured by Wako Pure Chemical Industries, Ltd.) was mixed to prepare 2 kinds of therapeutic agents for cancer, each of which was administered to a regional lymph node in the vicinity of the tumor a total of 3 times at 1-week intervals. […] On the other hand, in the negative control group to which PBS(−) was administered, the tumor volume, which had been about 800 mm^3 at the time of administration of PBS, became 1625 mm^3 on Day 21 after the administration.

[6] abbreviates: Day 31 after the administration, poly I:C alone 50 μg.

Data on 3 molecules can be found in patent US10251942B2, “Immunity-inducing agent” (TORAY INDUSTRIES, INC., priority 2009, dated 2019).

On to poly I:C [reference compound], for which the mean tumor volume in test [1] (Day 24 after the administration, poly I:C alone 50 μg) is listed as 835 mm^3; in test [2] (setting [6]), 932 mm^3; in test [3] (Day 40 after the administration, poly I:C alone 50 μg) it was 1843 mm^3; in test [4] (setting [6]) it was 1675 mm^3.

B1: human PDS5A protein (SEQ ID NO:44): full-length human PDS5A (SEQ ID NO:44) expressed in E. coli; given mixed with Freund's incomplete adjuvant (protein, listed as Homo sapiens)
chain: MDFTAQPKPATALCGVVSADGKIAYPPGVKEITDKITTDEMIKRLKMVVKTFMDMDQDSEDEKQQYLPLALHLASEFFLRNPNKDVRLLVACCLADIFRIYAPEAPYTSHDKLKDIFLFITRQLKGLEDTKSPQFNRYFYLLENLAWVKSYNICFELEDCNEIFIQLFRTLFSVINNSHNKKVQMHMLDLMSSIIMEGDGVTQELLDSILINLIPAHKNLNKQSFDLAKVLLKRTVQTIEACIANFFNQVLVLGRSSVSDLSEHVFDLIQELFAIDPHLLLSVMPQLEFKLKSNDGEERLAVVRLLAKLFGSKDSDLATQNRPLWQCFLGRFNDIHVPVRLESVKFASHCLMNHPDLAKDLTEYLKVRSHDPEEAIRHDVIVTIITAAKRDLALVNDQLLGFVRERTLDKRWRVRKEAMMGLAQLYKKYCLHGEAGKEAAEKVSWIKDKLLHIYYQNSIDDKLLVEKIFAQYLVPHNLETEERMKCLYYLYASLDPNAVKALNEMWKCQNMLRSHVRELLDLHKQPTSEANCSAMFGKLMTIAKNLPDPGKAQDFVKKFNQVLGDDEKLRSQLELLISPTCSCKQADICVREIARKLANPKQPTNPFLEMVKFLLERIAPVHIDSEAISALVKLMNKSIEGTADDEEEGVSPDTAIRSGLELLKVLSFTHPTSFHSAETYESLLQCLRMEDDKVAEAAIQIFRNTGHKIETDLPQIRSTLIPILHQKAKRGTPHQAKQAVHCIHAIFTNKEVQLAQIFEPLSRSLNADVPEQLITPLVSLGHISMLAPDQFASPMKSVVANFIVKDLLMNDRSTGEKNGKLWSPDEEVSPEVLAKVQAIKLLVRWLLGMKNNQSKSANSTLRLLSAMLVSEGDLTEQKRISKSDMSRLRLAAGSAIMKLAQEPCYHEIITPEQFQLCALVINDECYQVRQIFAQKLHKALVKLLLPLEYMAIFALCAKDPVKERRAHARQCLLKNISIRREYIKQNPMATEKLLSLLPEYVVPYMIHLLAHDPDFTRSQDVDQLRDIKECLWFMLEVLMTKNENNSHAFMKKMAENIKLTRDAQSPDESKTNEKLYTVCDVALCVINSKSALCNADSPKDPVLPMKFFTQPEKDFCNDKSYISEETRVLLLTGKPKPAGVLGAVNKPLSATGRKPYVRSTGTETGSNINVNSELNPSTGNRSREQSSEAAETGVSENEENPVRIISVTPVKNIDPVKNKEINSDQATQGNISSDRGKKRTVTAAGAENIQQKTDEKVDESGPPAPSKPRRGRRPKSESQGNATKNDDLNKPINKGRKRAAVGQESPGGLEAGNAKAPKLQDLAKKAAPAERQIDLQR
modifications: mixed with Freund's incomplete adjuvant
Take B1: the “day on which complete regression of the tumor was achieved” value in test [5] came out at 21 days.

B2: recombinant murine PDS5A protein: full-length murine PDS5A (SEQ ID NO:6) expressed in E. coli, His tag cleaved; given mixed with poly I:C (protein, listed as Mus musculus)
chain: MDFTQPKPATALCGVVSADGKIAYPPGVKEITDKITTDEMIKRLKMVVKTFMDMDQDSEDEKQQYLPLALHLASEFFLRNPNKDVRLLVACCLADIFRIYAPEAPYTSHDKLKDIFLFITRQLKGLEDTKSPQFNRYFYLLENLAWVKSYNICFELEDCNEIFIQLFRTLFSVINNSHNTKVQMHMLDLMSSIIMEGDGVTQELLDSILINLIPAHKNLNKQSFDLAKVLLKRTVQTIEACIANFFNQVLVLGRSSVSDLSEHVFDLIQELFAIDPQLLLSVMPQLEFKLKSNDGEERLAVVRLLAKLFGSKDSDLATQNRPLWQCFLGRFNDIHVPVRLESVKFASHCLMNHPDLAKDLTEYLKVRSHDPEEAIRHDVIVTIITAAKRDLALVNDQLLGFVRERTLDKRWRVRKEAMMGLAQLYKKYCLHGEAGKEAAEKVSWIKDKLLHIYYQNSIDDKLLVEKIFAQYLVPHNLETEERMKCLYYLYASLDPNAVKALNEMWKCQNMLRSHVRELLDLHKQPTSEANCSAMFGKLMTIAKNLPDPGKAQDFVKKFNQVLGDDEKLRSQLELLISPTCSCKQADVCVREIARKLANPKQPTNPFLEMVKFLLERIAPVHIDSEAISALVKLMNKSIEGTADDEEEGVSPDSAIRSGLELLKVLSFTHPTSFHSAETYESLLQCLRMEDDKVAEAAIQIFRNTGHKIETDLPQIRSTLIPILHQKAKRGTPHQAKQAVHCIHAIFSNKEVQLAQIFEPLSRSLNADVPEQLITPLVSLGHISMLAPDQFASPMKSVVANFIVKDLLMNDRSTGEKNGKLWSPDEEVSPEVLAKVQAIKLLVRWLLGMKNNQSKSANSTLRLLSAMLVSEGDLTEQKRISKSDMSRLRLAAGSAIMKLAQEPCYHEIITPEQFQLCALVINDECYQVRQIFAQKLHKALVKLLLPLEYMAIFALCAKDPVKERRAHARQCLLKNISIRREYIKQNPMATEKLLSLLPEYVVPYMIHLLAHDPDFTRSQDVDQLRDIKECLWFMLEVLMTKNENNSHAFMKKMAENIKLTRDAQSPDESKTNEKLYTVCDVALCVINSKSALCNADSPKDPVLPMKFFTQPEKDFCNDKSYISEETRVLLLTGKPKPTGVLGTVNKPLSATGRKPYVRSAGTETGSNINANSELSPSAGSRSREQSSEASETGVSENEENPVRIISVTPVKNIDTVKNKEINSDQSTQGNISSDRGKKRIVTAAGAENIQKPDEKVDESGPPAPSKPRRGRRPKSESQGNATKNDDLNKPVSKGRKRAAGSQESLEAGNAKAPKLQDGAKKAVPAERQIDLQR
modifications: mixed with poly I:C
In the case of B2, the tumor outcome was “complete regression of the tumor” in test [1] (Day 24, 100 μg protein mixed with 50 μg poly I:C, subcutaneous, 3 times at intervals of 1 week, PBS(−) group 1449 mm^3); “complete regression of the tumor” in test [2] (Day 31, 100 μg protein mixed with 50 μg poly I:C, subcutaneous, 3 times at intervals of 1 week, PBS(−) group 1657 mm^3); “no development of a tumor” in test [3] (Day 40, 100 μg protein mixed with 50 μg poly I:C, subcutaneous, 3 times at intervals of 1 week before N2a transplantation, PBS(−) group 1989 mm^3); “no development of a tumor” in test [4] (Day 31, 100 μg protein mixed with 50 μg poly I:C, subcutaneous, 3 times at intervals of 1 week before CT26 transplantation, PBS(−) group 1781 mm^3).
